Data as given in the supplement of paper PMC9112550, “Optimization of the antimicrobial peptide Bac7 by deep mutational scanning” (BMC Biology, 2022).

Each sequence was assayed on Escherichia coli TOP10 (assay: shrunken log2 fold change of peptide-encoding DNA abundance (4.5 h post-induction vs induction); higher = less antimicrobial activity (less host growth inhibition)). Conditions: time post-induction: 4.5 h; library: site-saturation at positions 5, 18, 19, 20.
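Also: peptides expressed intracellularly from a pBAD plasmid library in pooled LB shake-flask culture, induced with 0.3% L-arabinose, DNA abundance read by NGS, three biological replicates, DESeq2 with apeglm shrinkage.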

Row | Sequence | shrunken log2 fold change
1 | RRIRIRPPRLPRPRPRPDNNPRP | -0.376
2 | RRIRWRPPRLPRPRPRPMCQPRP | 0.132
3 | RRIRNRPPRLPRPRPRPHCMPRP | -0.251
4 | RRIRSRPPRLPRPRPRPWIEPRP | -0.0567
5 | RRIRTRPPRLPRPRPRPVQGPRP | 0.165
6 | RRIRCRPPRLPRPRPRPDHVPRP | 0.021
7 | RRIRPRPPRLPRPRPRPHKDPRP | -0.339
8 | RRIRARPPRLPRPRPRPLEGPRP | 0.564
9 | RRIRIRPPRLPRPRPRPEAHPRP | 0.0771
10 | RRIRGRPPRLPRPRPRPSPYPRP | -0.148
11 | RRIRKRPPRLPRPRPRPDKEPRP | -0.2
12 | RRIRSRPPRLPRPRPRPDWCPRP | 0.224
13 | RRIRFRPPRLPRPRPRPTRQPRP | 0.298
14 | RRIRYRPPRLPRPRPRPGQMPRP | -0.553
15 | RRIRDRPPRLPRPRPRPAVVPRP | 0.0373
16 | RRIRFRPPRLPRPRPRPICKPRP | -0.0703
17 | RRIRWRPPRLPRPRPRPKSDPRP | 0.473
18 | RRIRSRPPRLPRPRPRPPTNPRP | 0.298
19 | RRIRMRPPRLPRPRPRPQQQPRP | 0.246
20 | RRIRRRPPRLPRPRPRPHRVPRP | -0.0232
21 | RRIRSRPPRLPRPRPRPSFKPRP | -0.542
22 | RRIRRRPPRLPRPRPRPPLKPRP | 0.302
23 | RRIRRRPPRLPRPRPRPGQDPRP | 0.112
24 | RRIRMRPPRLPRPRPRPNFQPRP | -0.0246
25 | RRIRIRPPRLPRPRPRPHQEPRP | -0.01

Row | Sequence | shrunken log2 fold change
26 | RRIRVRPPRLPRPRPRPHPLPRP | -0.435
27 | RRIRVRPPRLPRPRPRPNNRPRP | -0.276
28 | RRIRGRPPRLPRPRPRPDSIPRP | 0.495
29 | RRIRERPPRLPRPRPRPTNCPRP | -0.165
30 | RRIRKRPPRLPRPRPRPRWSPRP | 0.559
31 | RRIRMRPPRLPRPRPRPLKFPRP | 0.426
32 | RRIRDRPPRLPRPRPRPSKEPRP | -0.031
33 | RRIRTRPPRLPRPRPRPESFPRP | -0.47
34 | RRIRYRPPRLPRPRPRPSKVPRP | -1.04
35 | RRIRTRPPRLPRPRPRPGCYPRP | -0.115
36 | RRIRDRPPRLPRPRPRPFVWPRP | 0.525
37 | RRIRGRPPRLPRPRPRPSLSPRP | 0.576
38 | RRIRHRPPRLPRPRPRPFMKPRP | -0.00214
39 | RRIRRRPPRLPRPRPRPWWRPRP | 0.463
40 | RRIRYRPPRLPRPRPRPNPWPRP | -0.189
41 | RRIRCRPPRLPRPRPRPQVMPRP | -0.464
42 | RRIRQRPPRLPRPRPRPTRSPRP | 0.164
43 | RRIRVRPPRLPRPRPRPQCNPRP | -0.449
44 | RRIRIRPPRLPRPRPRPWMNPRP | -0.238
45 | RRIRVRPPRLPRPRPRPIYIPRP | -0.755
46 | RRIRQRPPRLPRPRPRPSGPPRP | -0.0826
47 | RRIRCRPPRLPRPRPRPAYRPRP | -0.194
48 | RRIRYRPPRLPRPRPRPKWDPRP | -0.46
49 | RRIRCRPPRLPRPRPRPCLDPRP | 0.11
50 | RRIRIRPPRLPRPRPRPMGFPRP | 0.0523

Row | Sequence | shrunken log2 fold change
51 | RRIRKRPPRLPRPRPRPAGYPRP | 0.0743
52 | RRIRYRPPRLPRPRPRPVDKPRP | -0.00804
53 | RRIRYRPPRLPRPRPRPNQHPRP | -1.18
54 | RRIRIRPPRLPRPRPRPAMCPRP | -0.182
55 | RRIRGRPPRLPRPRPRPHQVPRP | 0.078
56 | RRIRYRPPRLPRPRPRPHPDPRP | -0.299
57 | RRIRGRPPRLPRPRPRPACDPRP | 0.964
58 | RRIRFRPPRLPRPRPRPLWHPRP | -0.248
59 | RRIRVRPPRLPRPRPRPQSGPRP | -0.0607
60 | RRIRGRPPRLPRPRPRPMWRPRP | 0.899
61 | RRIRWRPPRLPRPRPRPSTLPRP | -0.253
62 | RRIRDRPPRLPRPRPRPKWEPRP | 0.104
63 | RRIRMRPPRLPRPRPRPYKMPRP | -0.277
64 | RRIRPRPPRLPRPRPRPIMAPRP | -0.0956
65 | RRIRIRPPRLPRPRPRPCIKPRP | -0.185
66 | RRIRVRPPRLPRPRPRPGNKPRP | -0.286
67 | RRIRLRPPRLPRPRPRPNAEPRP | 0.143
68 | RRIRKRPPRLPRPRPRPDRKPRP | 0.413
69 | RRIRGRPPRLPRPRPRPIAFPRP | 0.8
70 | RRIRIRPPRLPRPRPRPYPWPRP | -1.06
71 | RRIRVRPPRLPRPRPRPYDLPRP | -0.121
72 | RRIRDRPPRLPRPRPRPLDWPRP | 0.0834
73 | RRIRARPPRLPRPRPRPPWEPRP | 0.558
74 | RRIRWRPPRLPRPRPRPFFIPRP | -0.309
75 | RRIRIRPPRLPRPRPRPEMKPRP | -0.037

Row | Sequence | shrunken log2 fold change
76 | RRIRQRPPRLPRPRPRPPYTPRP | -0.552
77 | RRIRMRPPRLPRPRPRPQENPRP | 0.48
78 | RRIRYRPPRLPRPRPRPNSSPRP | 0.0291
79 | RRIRERPPRLPRPRPRPLIEPRP | -0.287
80 | RRIRPRPPRLPRPRPRPAHCPRP | 0.0637
81 | RRIRMRPPRLPRPRPRPIPRPRP | 0.634
82 | RRIRMRPPRLPRPRPRPSPKPRP | 0.593
83 | RRIRYRPPRLPRPRPRPMWIPRP | -0.526
84 | RRIRKRPPRLPRPRPRPSDKPRP | -0.41
85 | RRIRNRPPRLPRPRPRPRNCPRP | -0.0144
86 | RRIRIRPPRLPRPRPRPCLEPRP | -0.808
87 | RRIRVRPPRLPRPRPRPYKSPRP | -0.492
88 | RRIRCRPPRLPRPRPRPWGNPRP | -0.256
89 | RRIRHRPPRLPRPRPRPGELPRP | 0.0143
90 | RRIRYRPPRLPRPRPRPQFHPRP | -1.09
91 | RRIRVRPPRLPRPRPRPQMYPRP | -0.436
92 | RRIRIRPPRLPRPRPRPFWNPRP | -0.277
93 | RRIRMRPPRLPRPRPRPDDEPRP | 0.123
94 | RRIRNRPPRLPRPRPRPFTLPRP | -0.884
95 | RRIRDRPPRLPRPRPRPKSTPRP | -0.175
96 | RRIRCRPPRLPRPRPRPGGEPRP | 0.538
97 | RRIRPRPPRLPRPRPRPFQDPRP | -0.0806
98 | RRIRKRPPRLPRPRPRPDWIPRP | -0.0252
99 | RRIRIRPPRLPRPRPRPRDSPRP | -0.346
100 | RRIRWRPPRLPRPRPRPKDIPRP | -0.0886

Row | Sequence | shrunken log2 fold change
101 | RRIRARPPRLPRPRPRPRNVPRP | 0.0957
102 | RRIRIRPPRLPRPRPRPMVTPRP | -0.018
103 | RRIRRRPPRLPRPRPRPLQFPRP | 0.313
104 | RRIRRRPPRLPRPRPRPWVDPRP | 0.0233
105 | RRIRERPPRLPRPRPRPFPQPRP | 2.37
106 | RRIRGRPPRLPRPRPRPHWEPRP | 0.324
107 | RRIRPRPPRLPRPRPRPPHTPRP | 0.398
108 | RRIRHRPPRLPRPRPRPFTIPRP | -0.0345
109 | RRIRARPPRLPRPRPRPVLCPRP | 0.43
110 | RRIRCRPPRLPRPRPRPQARPRP | -0.421
111 | RRIRERPPRLPRPRPRPRHHPRP | -0.0796
112 | RRIRQRPPRLPRPRPRPQPEPRP | -0.0839
113 | RRIRMRPPRLPRPRPRPSKYPRP | -0.166
114 | RRIRKRPPRLPRPRPRPTMPPRP | 0.282
115 | RRIRIRPPRLPRPRPRPPRAPRP | 0.417
116 | RRIRFRPPRLPRPRPRPYENPRP | -0.463
117 | RRIRRRPPRLPRPRPRPDFIPRP | 0.0171
118 | RRIRWRPPRLPRPRPRPILHPRP | 0.0591
119 | RRIRHRPPRLPRPRPRPLRMPRP | -0.0592
120 | RRIRNRPPRLPRPRPRPPNMPRP | -0.101
121 | RRIRCRPPRLPRPRPRPWSAPRP | -0.308
122 | RRIRERPPRLPRPRPRPTVTPRP | 0.0913
123 | RRIRFRPPRLPRPRPRPWVWPRP | 0.212
124 | RRIRPRPPRLPRPRPRPCFKPRP | -0.341
125 | RRIRQRPPRLPRPRPRPDQWPRP | 0.129

Row | Sequence | shrunken log2 fold change
126 | RRIRIRPPRLPRPRPRPRCGPRP | 0.0437
127 | RRIRKRPPRLPRPRPRPGYQPRP | 0.0954
128 | RRIRMRPPRLPRPRPRPRGGPRP | 1.26
129 | RRIRVRPPRLPRPRPRPLNPPRP | -0.113
130 | RRIRFRPPRLPRPRPRPDRYPRP | -0.0446
131 | RRIRMRPPRLPRPRPRPDSNPRP | 0.754
132 | RRIRQRPPRLPRPRPRPPKYPRP | -0.313
133 | RRIRIRPPRLPRPRPRPNDWPRP | 0.0555
134 | RRIRDRPPRLPRPRPRPSILPRP | 0.202
135 | RRIRRRPPRLPRPRPRPHYGPRP | -0.178
136 | RRIRMRPPRLPRPRPRPWCWPRP | 0.366
137 | RRIRLRPPRLPRPRPRPLWRPRP | 0.785
138 | RRIRGRPPRLPRPRPRPECNPRP | 1.95
139 | RRIRWRPPRLPRPRPRPLMSPRP | -0.0663
140 | RRIRKRPPRLPRPRPRPLLLPRP | -0.105
141 | RRIRGRPPRLPRPRPRPPSRPRP | 1.11
142 | RRIRPRPPRLPRPRPRPLSHPRP | -0.27
143 | RRIRRRPPRLPRPRPRPALSPRP | 0.528
144 | RRIRSRPPRLPRPRPRPVPSPRP | 0.391
145 | RRIRIRPPRLPRPRPRPRTSPRP | 0.0339
146 | RRIRARPPRLPRPRPRPSINPRP | -0.308
147 | RRIRMRPPRLPRPRPRPGLLPRP | 0.251
148 | RRIRVRPPRLPRPRPRPQTVPRP | -0.0217
149 | RRIRMRPPRLPRPRPRPEDGPRP | 2.85
150 | RRIRSRPPRLPRPRPRPWRWPRP | 0.124
